The source of these data is PMC12060060 (Investigative Ophthalmology & Visual Science, 2025).

This data set deals with the molecule itself. In words: dynamic light scattering.

B1: Q147E deamidated αA-crystallin (recombinant human) (natural protein, UniProt P02489 1-173, looked up)
chain: MDVTIQHPWFKRTLGPFYPSRLFDQFFGEGLFEYDLLPFLSSTISPYYRQSLFRTVLDSGISEVRSDRDKFVIFLDVKHFSPEDLTVKVQDDFVEIHGKHNERQDDHGYISREFHRRYRLPSNVDQSALSCSLSADGMLTFCGPKIETGLDATHAERAIPVSREEKPTSAPSS
B1: the binding result was “binds”.
